Experimental data published in patent US20220025021A1 (BETH ISRAEL DEACONESS MEDICAL CENTER, published 2022).
Positions count from the first letter of the chain named.

B1: MS-70 (antibody, V domains shown)
VH: QVQLVQSGPEVRKPGTSVKVSCKAPGNTLKTYDLHWVRSVPGQGLQWMGWISHEGDKKVIVERFKAKVTIDWDRSTNTAYLQLSGLTSGDTAVYYCAKGSKHRLRDYALYDDDGALNWAVDVDYLSNLEFWGQGTAVTVSS
VL: DFVLTQSPHSLSVTPGESASISCKSSHSLIHGDRNNYLAWYVQKPGQSPQLLIYLASSRASGVPDRFSGSGSDKDFTLKISRVETEDVGTYYCMQGRESPWTFGQGTKVDIKR
B2: MS-79 (antibody, V domains shown)
VH: B1 VH with D71T
VL: B1 VL with Q47R
B3: MS-78 (antibody, V domains shown)
VH: B1 VH with Q46E
VL: B1 VL with Q47R
B4: MS-82 (antibody, V domains shown)
VH: B1 VH with T87R
VL: B1 VL with Q47R
B5: MS-72 (antibody, V domains shown)
VH: B1 VH
VL: B1 VL with Q47R, K74T
B6: MS-77 (antibody, V domains shown)
VH: B1 VH with L29F
VL: B1 VL with Q47R
B7: MS-80 (antibody, V domains shown)
VH: B1 VH with W72R
VL: B1 VL with Q47R
B8: MS-81 (antibody, V domains shown)
VH: B1 VH with Q82E
VL: B1 VL with Q47R
B9: MS-75 (antibody, V domains shown)
VH: B1 VH with P25S
VL: B1 VL with Q47R
B10: MS-74 (antibody, V domains shown)
VH: B1 VH
VL: B1 VL with Q47R, T90V
B11: MS-76 (antibody, V domains shown)
VH: B1 VH with N27Y
VL: B1 VL with Q47R
B12: MS-68 (antibody)
VH: not shown
VL: DFVLTQSPHSLPVTPGESASISCKSSHSLIHGDRNNYLAWYVQKPGRSPQLLIYLASSRASGVPDRFSGSGSDKDFTLKISRVETEDVGTYYCMQGRESPWTFGQGTKVDIKRTVAAPSVFIFPPSDEQLKSGTASVVCLLNNFYPREAKVQWKVDNALQSGNSQESVTEQDSKDSTYSLSSTLTLSKADYEKHKVYACEVTHQGLSSPVTKSFNRGEC
B13: MS-69 (antibody)
VH: not shown
VL: B12 VL with P12S, S18P
B14: MS-73 (antibody)
VH: not shown
VL: B12 VL with P12S, T85A
B15: MS-71 (antibody)
VH: not shown
VL: B12 VL with P12S, D73G

The binders below were run against HIV-1 Env of pseudovirus SC422661.8 (HIV-1) (assay: cell-based or functional assay).

Binder	neutralization IC50	neutralization IC80
B1	0.391 µg/mL	2.43 µg/mL
B2	0.587 µg/mL	> 25 µg/mL
B3	0.635 µg/mL	3.63 µg/mL
B4	0.387 µg/mL	3.29 µg/mL
B5	0.373 µg/mL	2.83 µg/mL
B6	0.373 µg/mL	3.59 µg/mL
B7	0.451 µg/mL	> 25 µg/mL
B8	0.418 µg/mL	4.25 µg/mL
B9	0.489 µg/mL	9.41 µg/mL
B10	0.388 µg/mL	3.51 µg/mL
B11	0.36 µg/mL	6.46 µg/mL
B12	0.538 µg/mL	2.02 µg/mL
B13	0.609 µg/mL	3.37 µg/mL
B14	0.384 µg/mL	2.54 µg/mL
B15	0.273 µg/mL	1.94 µg/mL

What follows are binders tested against HIV-1 Env of pseudovirus RHPA4259.7 (HIV-1) (assay: cell-based or functional assay).

Binder	neutralization IC50	neutralization IC80
B1	0.182 µg/mL	0.734 µg/mL
B2	0.221 µg/mL	0.792 µg/mL
B3	0.241 µg/mL	0.841 µg/mL
B4	0.192 µg/mL	0.672 µg/mL
B5	0.247 µg/mL	1.16 µg/mL
B6	0.209 µg/mL	0.734 µg/mL
B7	0.267 µg/mL	1.24 µg/mL
B8	0.202 µg/mL	0.897 µg/mL
B9	0.276 µg/mL	1.31 µg/mL
B10	0.132 µg/mL	0.461 µg/mL
B11	0.242 µg/mL	0.842 µg/mL
B12	0.199 µg/mL	0.759 µg/mL
B13	0.139 µg/mL	0.811 µg/mL
B14	0.094 µg/mL	0.549 µg/mL
B15	0.164 µg/mL	0.583 µg/mL

Each binder was assayed against HIV-1 Env of pseudovirus Du172.17 (HIV-1) (assay: cell-based or functional assay).

Binder	neutralization IC50	neutralization IC80
B1	1.49 µg/mL	6.05 µg/mL
B2	7.28 µg/mL	> 25 µg/mL
B3	1.71 µg/mL	7 µg/mL
B4	1.88 µg/mL	7 µg/mL
B5	1.75 µg/mL	8.76 µg/mL
B6	2.23 µg/mL	12.2 µg/mL
B7	15.2 µg/mL	> 25 µg/mL
B8	1.65 µg/mL	6.37 µg/mL
B9	3.56 µg/mL	16.1 µg/mL
B10	1.46 µg/mL	5.57 µg/mL
B11	1.7 µg/mL	9.68 µg/mL
B12	1.82 µg/mL	6.8 µg/mL
B13	1.4 µg/mL	5.6 µg/mL
B14	0.934 µg/mL	5 µg/mL
B15	1.29 µg/mL	6.07 µg/mL

These binders were tested against HIV-1 Env of pseudovirus BB1012-11.TC21 (HIV-1) (assay: cell-based or functional assay).

Binder	neutralization IC50	neutralization IC80
B1	0.021 µg/mL	0.079 µg/mL
B2	0.019 µg/mL	0.08 µg/mL
B3	0.024 µg/mL	0.105 µg/mL
B4	0.023 µg/mL	0.108 µg/mL
B5	0.023 µg/mL	0.089 µg/mL
B6	0.023 µg/mL	0.103 µg/mL
B7	0.02 µg/mL	0.086 µg/mL
B8	0.024 µg/mL	0.102 µg/mL
B9	0.029 µg/mL	0.134 µg/mL
B10	0.021 µg/mL	0.093 µg/mL
B11	0.013 µg/mL	0.059 µg/mL
B12	0.023 µg/mL	0.076 µg/mL
B13	0.018 µg/mL	0.071 µg/mL
B14	0.023 µg/mL	0.086 µg/mL
B15	0.015 µg/mL	0.054 µg/mL

These binders were tested against HIV-1 Env of pseudovirus CNE52 (HIV-1) (assay: cell-based or functional assay).

Binder	neutralization IC50	neutralization IC80
B1	0.301 µg/mL	2.55 µg/mL
B2	2.42 µg/mL	> 25 µg/mL
B3	0.233 µg/mL	1.39 µg/mL
B4	0.206 µg/mL	1.18 µg/mL
B5	0.302 µg/mL	4.53 µg/mL
B6	0.322 µg/mL	2.71 µg/mL
B7	5.25 µg/mL	> 25 µg/mL
B8	0.212 µg/mL	1.8 µg/mL
B9	0.687 µg/mL	7.55 µg/mL
B10	0.169 µg/mL	1.46 µg/mL
B11	0.174 µg/mL	1.37 µg/mL
B12	0.136 µg/mL	1.13 µg/mL
B13	0.129 µg/mL	1.9 µg/mL
B14	0.207 µg/mL	1.81 µg/mL
B15	0.172 µg/mL	2.59 µg/mL

The binders below were run against HIV-1 Env of pseudovirus 0260.v5.c36 (HIV-1) (assay: cell-based or functional assay).

Binder	neutralization IC50	neutralization IC80
B1	0.028 µg/mL	0.103 µg/mL
B2	0.028 µg/mL	0.159 µg/mL
B3	0.02 µg/mL	0.095 µg/mL
B4	0.016 µg/mL	0.051 µg/mL
B5	0.023 µg/mL	0.114 µg/mL
B6	0.019 µg/mL	0.101 µg/mL
B7	0.041 µg/mL	0.321 µg/mL
B8	0.02 µg/mL	0.075 µg/mL
B9	0.034 µg/mL	0.137 µg/mL
B10	0.017 µg/mL	0.086 µg/mL
B11	0.01 µg/mL	0.06 µg/mL
B12	0.019 µg/mL	0.073 µg/mL
B13	0.021 µg/mL	0.078 µg/mL
B14	0.018 µg/mL	0.065 µg/mL
B15	0.022 µg/mL	0.062 µg/mL
